Measured values reported in US20240043859A1, “HERBICIDE-RESISTANT PROTEIN, AND GENE AND USE THEREOF” (QINGDAO KINGAGROOT CHEMICAL COMPOUND CO., LTD., priority 2020, published 2024).
Entries after “also recorded” stand apart in the source; their conditions may differ.

B1: QYD46: AAD-like enzyme, SEQ ID NO. 91 (protein)
chain: MARAFYITPLDATFGAVVTGVKLVDLDDAGWRELHAAWLQYALLVFPGQYLKRDQQIAFARRFGPLEFEMVAISNVRSDGTLRVEKDNDDVMKILKGNMGWHADSTYMPVQAKGAVFSAEVVPTIGGHTGFADMRAAYDALDDVRKARVENLQARHSLHYSQSKLGHETKKSDGEYHGYGLHDGPVPLRPLVKTHPETGRKSLLIGRHAHAIPGMDGPESEAFLQELIDFACQPPRIYHHDWAAGDAVLWDNRCLLHQATPWDMTQKRIMWHSRIAGDPASESALAH
modifications: Synthetic polypeptide, QYD46, D46
B2: QYD43: AAD-like enzyme, SEQ ID NO. 85 (protein)
chain: MRRLHIAPTGATLGATVTGVSLAALDEPTWQAIYRAWLEHALLIFPGQHLSNQQQIGFARRFGAIERIGGGEIVAISNVKADGRVRAHTPAEWDDMMKVIVGNMAWHADSTYMPVMAKGAVFSGELVPTERGETSFADMRAAYDALDQATRALVHQRSAHHSLVYSQSKLGHVPGAQSAYLGYGMDQTTAPLRPLVKVHPETGRQSLLIGRHAHAIPGMDPAESEVFLEGLVEWACQPPRIHTHHWTAGDVVLWDNRCLLHRAMPWDLAQPRVMWHSRLAGDPVAEAALPPVAPAAATH
modifications: Synthetic polypeptide, QYD43, D43
B3: QYD48: AAD-like enzyme, SEQ ID NO. 95 (protein)
chain: MTDRLEIKPLDATFGAVVTGIRLAEIDEPTWRELHATWLKYALLVFPGQHLQRDQQIAFAKRFGPLEFEMAAISNVKSDGTLRIEEDNDDMMKILKGNMGWHADSTYMPVQAKGAVFSAEEVPTIGGQTGWADMRAAYDALDEARKAQIESLQAYHSLHYSQSQLGHQTGKSDGEYSGYGLHDGPVPLRPLVKTHPETGRKSLLIGRHAHNIPGMDRDEARRLLEGLIDFACQPPRIYHHDWAAGDAVVWDNRCLLHQATPWDMTQRRIMWHSRIAGDPASESALAA
modifications: Synthetic polypeptide, QYD48, D48
B4: QYD47: AAD-like enzyme, SEQ ID NO. 93 (protein)
chain: MATRLEIKPLDATFGAVVTGIKLAEIDEATWRELHATWLKYALLVFPGQFLKRDQQIAFAKHFGPLEFEMAAISNVKSDGTLRIEKDNDDVMKILKGNMGWHADSTYMPVQAKGAVFSAEEVPTVGGQTGWADMRAAYDALDDARRARVETLQAYHSLHYSQSKLGHETRKSDGEYSGYGLHNGPIPLRPLVKTHPETGRKSLLIGRHAHDIPGMDREESQSFLEELVDFACRPPRIYHHDWAAGDAVVWDNRCLLHQATPWDMTQRRIMWHSRIAGDPASESALAA
modifications: Synthetic polypeptide, QYD47, D47

Assays:
[1] = Chromogenic reaction of degrading herbicides in bacteria: triclopyr; format: cell-based, Escherichia coli; conditions: recombinant E. coli expressing the gene
Procedure: To transform the plasmids to be tested, an AAD12-expressing plasmid and a blank control plasmid pET15b were respectively transformed into the protein expression E. coli BL21(DE3) strains. A monoclone was selected and inoculated in a 10 ml centrifuge tube with 3 ml LB medium, and cultivated at 37° C., 200 rpm for 6-8 hours. […] The temperature was switched to 28° C. and the cultivation continued overnight. In the next morning, 200 μL of each bacteria solution was taken and centrifuged to precipitate thallus, 180 μL of the supernatant was taken and added in a 96-well plate, and 20 μL of borate buffer of pH 10 was added. Then the mixture was added with 2 μL of 8% potassium ferricyanide and mixed well, followed by adding 2 μL of 2% 4-aminoantipyrine, and placed at room temperature for 5 min to observe the color and detect the A510 value. […]

[2] = test system: Arabidopsis thaliana; experiment: Herbicide resistance of transgenic Arabidopsis thaliana seedlings on plate medium (root growth); format: in vivo; conditions: plate medium with 2,4-D (0.3 μmol)
[3] = test system: Arabidopsis thaliana; experiment: as above; format: in vivo; conditions: Arabidopsis overexpressing the gene
In short: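 After 3 days of cold treatment at 4 °C, seeds were cultured at 22 °C under a 16 h/8 h light cycle on MS herbicide medium (0.3 μM 2,4-D in the screen). Root growth was scored against wild-type seedlings at one week. The material was T2 AAD-overexpressing lines (AtUbi10 promoter, MAS terminator, hygromycin marker), two events each, tested with 2,4-D, 2,4-DB sodium and MCPA.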

[4] = Chromogenic reaction of degrading herbicides in bacteria: 2,4-D; format: cell-based, Escherichia coli; conditions: recombinant E. coli expressing the gene, 2,4-D added to the medium, red = phenols
In short: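 Colour from 2,4-D degradation was detected at A510 after 5 min at room temperature, with 4-aminoantipyrine and ferricyanide added to culture supernatant in pH 10 borate. Cultures were AAD12-expressing or empty-vector (pET15b) BL21(DE3), grown overnight at 28 °C with 0.5 mM 2,4-D, 0.1 mM IPTG and 2 mM α-ketoglutarate.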

[5] = format: cell-based, Escherichia coli

Molecule | Chromogenic reaction of degrading herbicides in bacteria: Triclopyr [1] | Chromogenic reaction of degrading herbicides in bacteria: Triclopyr ([1]; listed as D46) | 2,4-D resistance of T1 generation transgenic seedlings (seminal root growth) [2] | Resistance of transgenic Arabidopsis thaliana: 2,4-D [3] | Resistance of transgenic Arabidopsis thaliana: MCPA [3] | Chromogenic reaction of degrading herbicides in bacteria: 2,4-D [4] | Chromogenic reaction of degrading herbicides in bacteria: 2,4-D ([4]; listed as D46) | Chromogenic reaction of degrading herbicides in bacteria: MCPA [5] | Chromogenic reaction of degrading herbicides in bacteria: Triclopyr ([1]; listed as D43) | Chromogenic reaction of degrading herbicides in bacteria: 2,4-D ([4]; listed as D43) | Chromogenic reaction of degrading herbicides in bacteria: Triclopyr ([1]; listed as D48) | Chromogenic reaction of degrading herbicides in bacteria: 2,4-D ([4]; listed as D48) | Chromogenic reaction of degrading herbicides in bacteria: Triclopyr ([1]; listed as D47) | Chromogenic reaction of degrading herbicides in bacteria: 2,4-D ([4]; listed as D47)
B1 | Yes | slight degradation | showing tolerance to 2,4-D | Yes | Yes | Yes | could degrade 2,4-D; also recorded: capable of degrading 2,4-D | Yes |  |  |  |  |  | 
B2 | Yes |  | showing tolerance to 2,4-D | Yes | Yes | Yes |  | Yes | slight degradation | could degrade 2,4-D; also recorded: capable of degrading 2,4-D |  |  |  | 
B3 | Yes |  | showing tolerance to 2,4-D | Yes | Yes | Yes |  | Yes |  |  | slight degradation | could degrade 2,4-D; also recorded: capable of degrading 2,4-D |  | 
B4 | Yes |  | showing tolerance to 2,4-D | Yes | Yes | Yes |  | Yes |  |  |  |  | slight degradation | could degrade 2,4-D; also recorded: capable of degrading 2,4-D
